Assay results published in PMC10477855.

Target: UBR5 (UniProt O95071)
Assay: co-IP and immunoblot, transfected cells
Conditions: reference: ACSL4 wild type; sites S447

binding against the reference: lost
Substance: ACSL4 (from UniProt O60488) ACSL4 S447A
